Laboratory results as given in the supplement of paper PMC9732359.
± gives the uncertainty stated by the source.

Experiment: protein stability index of a GFP-peptide fusion (yeast GPS) (PSI 1-4); higher = more stable; sorted into four equal gates, so the index is relative within each strain
Method in brief: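 Peptides tiling yeast proteins in 17-residue segments were fused downstream of GFP, with Cherry expressed from the same plasmid. As a pooled library in yeast, mid-log cultures grown in leucine-free medium were sorted into four equal gates by GFP/Cherry fluorescence ratio. Gate plasmids were PCR-amplified and Illumina-sequenced, and barcodes linked reads to strains. Each peptide received a protein stability index equal to the sum of each gate's read frequency times its gate number.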

Sequence | protein stability index (doa10∆) | protein stability index (pdr5∆) | protein stability index (san1∆) | protein stability index (ubr1∆)
KPQFENHVKQFYERLDK [MED11] | 2.87 ± 0.12 | 2.46 ± 0.19 | 2.57 ± 0.088 | 2.17 ± 0.17
EVSKDLIAVYYSFGGLL [RPB8] | 2.55 ± 0.051 | 2.7 ± 0.067 | 2.46 ± 0.079 | 2.72 ± 0.057
IILHFANFGEILEDFRV [YMR153W/NUP53] | 2.7 ± 0.1 | 2.65 ± 0.084 | 2.85 ± 0.062 | 2.85 ± 0.16
QDMEAAKEVYKIHQQLL [GAL11] | 3.41 ± 0.22 | 3.41 ± 0.13 | 3.5 ± 0.11 | 3.41 ± 0.12
SLEHELKRSTELLETVS [YIL149C/MLP2] | 2 ± 0.057 | 2.21 ± 0.054 | 2.25 ± 0.071 | 2.17 ± 0.037
SPLQSSKSKQSFTQGEL [YMR129W/POM152] | 2.88 ± 0.055 | 2.8 ± 0.061 | 2.73 ± 0.055 | 2.95 ± 0.05
NELLDLTESQTETYISD [RPN5] | 3.17 ± 0.073 | 3.35 ± 0.069 | 3.12 ± 0.046 | 3.21 ± 0.069
ARYSIIREINYTMSNHG [RPO31] |  |  |  | 1.44 ± 0.23
QDEVNKGPAIDELSSKE [NNF1] | 3.23 ± 0.061 | 3.36 ± 0.081 | 3.34 ± 0.077 | 3.24 ± 0.057
NVEKYPTFVEFILIPLY [SNU114] | 2.33 ± 0.052 | 2.46 ± 0.054 | 2.04 ± 0.069 | 2.65 ± 0.053
LNAIILKLEKLNTNRTF [SMC3] | 2.19 ± 0.047 | 2.31 ± 0.051 | 2.24 ± 0.09 | 2.76 ± 0.048
EQVRKMYQEWEDETVKV [NSL1] | 3.7 ± 0.09 | 3.52 ± 0.083 | 3.406 ± 0.032 | 3.58 ± 0.077
LGFVLLRDYTTVPRIVQ [RPN2] | 1.58 ± 0.046 | 1.66 ± 0.053 | 1.35 ± 0.076 | 1.42 ± 0.038
SQVEDFTRIFLPIYDSL [SIR3] | 2.67 ± 0.059 | 2.64 ± 0.045 | 2.49 ± 0.059 | 2.36 ± 0.036
QELGFCELLKLTNEDPP [SSN2] | 3 ± 0.12 | 3.12 ± 0.069 | 2.83 ± 0.1 | 3.02 ± 0.066
GHYQAFIRDELDENKWY [UBP6] | 1.49 ± 0.057 | 1.88 ± 0.047 | 1.53 ± 0.12 | 1.85 ± 0.063
RCLVAVIQQDKYQKALH [SRP72] | 2.46 ± 0.2 | 2.23 ± 0.07 | 1.85 ± 0.1 | 2.09 ± 0.13
EQFLETDSDFAKYHAKL [SRP68] | 2.83 ± 0.07 | 2.94 ± 0.067 | 2.79 ± 0.05 | 2.77 ± 0.089
RAKPVTNSSILLGKILP [RRP6] | 2.2 ± 0.074 | 2.14 ± 0.077 | 2.27 ± 0.12 | 2.39 ± 0.13
DELLSQLDLCKLYFQLF [SRP68] | 1.56 ± 0.1 | 1.67 ± 0.11 | 1.46 ± 0.15 | 1.72 ± 0.057
DVHNGYILRYLHANGAS [COB] | 2.83 ± 0.096 | 2.37 ± 0.093 | 1.93 ± 0.11 | 2.5 ± 0.079
ESSELNKDSIEECGRTI [CSN12] | 3.46 ± 0.18 | 2.92 ± 0.16 | 3.42 ± 0.089 | 3.28 ± 0.15
NFLDAPGHVNFMDETAV [SNU114] | 3.26 ± 0.16 | 3.28 ± 0.11 | 3.29 ± 0.068 | 3.08 ± 0.11
FLNNGEVDSASDFISKL [RPN3] | 2.57 ± 0.29 | 3.33 ± 0.21 | 2.8 ± 0.27 | 3.29 ± 0.13
VNESRNSDDIIDVDMDA [SRB5] | 2.27 ± 0.065 | 2.2 ± 0.053 | 2.57 ± 0.078 | 2.59 ± 0.052
DKLELYVLRNVLRIPEE [MTW1] | 3 ± 0.13 | 2.45 ± 0.084 | 2.94 ± 0.076 | 3.41 ± 0.12
IIQGRKNFDMLNSMEKD [PCI8] | 2.63 ± 0.083 | 2.77 ± 0.074 | 2.95 ± 0.046 | 2.71 ± 0.047
INVVIKASRKSVGLPSK [ECM29] | 1.27 ± 0.089 | 1.7 ± 0.074 | 1.95 ± 0.24 | 1.26 ± 0.13

Sequence | protein stability index (doa10∆) | protein stability index (pdr5∆) | protein stability index (san1∆) | protein stability index (ubr1∆)
ELIIDKVTCSSNSSSSP [MED1] | 2.72 ± 0.058 | 2.75 ± 0.065 | 2.79 ± 0.054 | 2.72 ± 0.048
ALAGSEINWRHASFLCS [FAS1] | 1.77 ± 0.071 | 1.6 ± 0.057 | 1.43 ± 0.092 | 1.84 ± 0.049
KAEYVDQYDAERDFYHS [RPO31] | 2.75 ± 0.061 | 2.97 ± 0.1 | 3.23 ± 0.097 | 3.16 ± 0.06
GALQESVEAYLVSLFED [HHT1] | 1.42 ± 0.095 | 2.62 ± 0.12 | 2.29 ± 0.12 | 2.05 ± 0.08
DELVLNFENDNENNSNG [REC8] | 2.88 ± 0.19 | 2.62 ± 0.28 | 2.64 ± 0.15 | 2.79 ± 0.16
HPIMETIVNDSNYDWLF [RPN9] | 2.42 ± 0.058 | 2.34 ± 0.057 | 2.16 ± 0.085 | 2.66 ± 0.052
DLTLDDISLKADLERFF [YJL039C/NUP192] | 3.29 ± 0.053 | 3.35 ± 0.076 | 3.41 ± 0.036 | 3.23 ± 0.039
FTNIISRNKALELNLSV [YJL039C/NUP192] | 2.64 ± 0.11 | 2.78 ± 0.087 | 2.62 ± 0.12 | 2.69 ± 0.088
WTRGTGLMSANNIIAEG [FAS2] | 2.98 ± 0.096 | 2.85 ± 0.086 | 3.06 ± 0.093 | 
STGGKAPRKQLASKAAR [HHT1] | 2.35 ± 0.23 | 3.35 ± 0.21 | 3.03 ± 0.1 | 3.25 ± 0.21
LNDENSDDYDNEGAASS [SMC1] | 3.39 ± 0.25 |  |  | 
MNERDWRILKEDYAIVT [PRP28] | 3.42 ± 0.22 | 3.16 ± 0.23 |  | 
EQSKEVGDVVGGALDNP [BRN1] | 3.29 ± 0.091 | 3.54 ± 0.078 | 3.44 ± 0.057 | 3.38 ± 0.058
KNLKHIDVTFTKVNNQL [RPL9A] | 2.79 ± 0.057 | 2.58 ± 0.053 | 2.52 ± 0.07 | 2.62 ± 0.045
GHIVSLELTTGATYRGK [SMD3] | 1.98 ± 0.049 | 2.03 ± 0.049 | 2.12 ± 0.085 | 2.34 ± 0.053
RKIGISIDDHPYNLNLF [RPC31] | 1.75 ± 0.043 | 2.04 ± 0.05 | 1.71 ± 0.098 | 1.9 ± 0.044
KLFNKWSFEEVEVKDAS [RPS5] | 2.17 ± 0.087 | 1.77 ± 0.072 | 1.4 ± 0.15 | 1.67 ± 0.06
VGVHIADVTHFVKPGTA [DIS3] | 2.51 ± 0.055 | 2.14 ± 0.058 | 2.9 ± 0.052 | 2.76 ± 0.063
EDFQVLRLGRGINPNTF [YDL088C/ASM4] | 3.29 ± 0.11 | 3.45 ± 0.19 | 3.06 ± 0.11 | 3.52 ± 0.064
YFPEGYNNKVGVAASQG [SIR2] | 1.64 ± 0.055 | 2.03 ± 0.063 | 2.04 ± 0.16 | 1.81 ± 0.062
KFELGRQPANTKIGAKR [RPS8A] | 2.87 ± 0.06 | 3.1 ± 0.068 | 2.91 ± 0.11 | 3.18 ± 0.055
RNARATRAAKIAPRPLD [RPL13A] |  |  | 3.33 ± 0.1 | 
SCGYPAAKTRSYNWGAK [RPL37A] | 2.21 ± 0.29 | 3.34 ± 0.12 | 3.1 ± 0.085 | 3.31 ± 0.12
PRYFSEAINGFKDETIS [SIR3] | 2.77 ± 0.057 | 2.87 ± 0.054 | 2.46 ± 0.11 | 2.84 ± 0.048
GVAASQGSMSERPPYIL [SIR2] | 2.75 ± 0.11 | 3.08 ± 0.089 | 2.72 ± 0.097 | 3.16 ± 0.085
YKNEDVTALLEQGFKVV [YCS4] | 2.8 ± 0.1 | 3.08 ± 0.1 | 2.93 ± 0.097 | 2.74 ± 0.091
YLSDLKQFFQMTPLLVN [PCI8] | 1.69 ± 0.043 | 1.74 ± 0.044 | 1.51 ± 0.066 | 1.51 ± 0.026
